Source: the Human Domainome abundance scans (Beltran et al. 2025)

B1: Triacylglycerol hydrolase DDHD2, residues 389 to 447; numbered along this chain, O94830 (parent)
chain: TLEEDLKKLQLSEFFDIFEKEKVDKEALALCTDRDLQEIGIPLGPRKKILNYFSTRKNS

Variants of: B1
Assay: abundance fitness (aPCA) (normalised: wild type 0, dead -1); higher = more abundant; growth selection in yeast, the domain comes from the species named
Details: Homo sapiens

Abundance fitness of substitutions, site by site:
I39: S -0.364, K 0.196, G -0.261, D -0.3, F 0.448, M 0.764, C -0.411, Q -0.146, L 0.176, T -0.336, A -0.204, W 0.613, Y 0.548, V -0.052, N -0.249, R -0.008, H -0.341
D35: S -0.051, K 0.313, G -0.182, I -1.13, Q 0.271, V -0.818, Y 0.207, E 0.197, H 0.087, N -0.06, M 0.215, R 0.053, C -0.278, F -0.311, W -0.429, T -0.264, P -0.937, L -0.762, A -0.309
P42: L -0.958, G -0.587, F -1.17, N -0.35, H -1.06, R -0.872, Y -0.83, C -0.842, V -1.01, M -0.649, A -0.518, Q -0.393, E -0.213, K -0.737, S -0.493, T -0.839
L36: G -0.322, E -0.363, K -0.06, Q -0.448, I -0.465, M -0.164, P -0.473, S -0.293, T -0.298, F -0.797, H -0.352, Y -0.765, D -0.565, V -0.567, N -0.267, R -0.434, C -0.363
I41: M 0.134, F -0.888, E -0.13, A -0.433, P -0.417, H -0.31, G -0.323, L 0.069, D -0.384, W -0.831, S -0.168, C -0.425, N -0.837, Q -0.144, R -0.289, Y -0.689, V 0.003
D33: H -0.283, G -0.199, V -0.693, L -0.339, M 0.124, E -0.058, W -0.51, A -0.107, Q -0.446, C -0.675, T -0.238, N -0.367, Y -0.498, K -0.489, S -0.235, F -0.609, I -0.821, P -0.659, R -0.576
L43: Y 0.473, G 0.231, E 0.725, N 0.295, F 0.313, I 0.496, R 0.512, H 0.519, Q 0.621, C 0.47, V 0.48, M 0.298, T 0.543, S 0.617, W 0.16
A29: R 0.011, S 0.106, N 0.142, C -0.23, H 0.06, D -0.264, M -0.156, I 0.012, G -0.191, W -0.399, V -0.401, T 0.032, L -0.323, F -0.066, E 0.005, P 0.03
E26: V -0.21, Q -0.107, W -0.086, L -0.383, R 0.137, N -0.109, K 0.481, M -0.072, T -0.173
C31: I 0.035, E -0.366, L 0.526, S 0.165, G -0.294, W 0.44, Q -0.145, T 0.145, R -0.188, F 0.605, Y 0.626, A 0.343, K 0.489, P -0.196, M 0.977, N -0.304
L30: M 0.483, T 0.556, D 0.423, C 0.593, S 0.489, R 0.581, W 0.263, F -0.031, E 0.49, H 0.377, Y 0.164, K 0.642, N 0.687, A 0.477, Q 0.238, V 0.329, I 0.513, P -0.177, G 0.452
G44: M 0.06, S 0.167, R -0.056, V 0.375, E 0.574, N 0.041, P -0.079, Q 0.333, K 0.18, H 0.101, D 0.342, Y -0.122, L 0.1, F -0.151, C -0.176, W -0.275, A 0.35, I 0.418
A27: V 0.047, P -0.355, C 0.429, N 0.263, G 0.316, Q 0.475, I -0.045, K 0.67, D 0.437, L -0.039, E 0.231, S -0.096, M 0.639, T 0.057, Y 0.6, F 0.708, H 0.357, W 0.841
R46: A 0.45
E38: S -0.369, Y -0.55, C -0.129, P -0.888, M 0.033, D 0.067, Q -0.161, K 0.299, A 0.181, H -0.302, V -0.036, I -0.294, G -0.319, F -0.468, T -0.051
R34: N 0.368, T 0.076, L -0.001, C 0.011, K -0.087, Q 0.059, M 0.32, P -0.266, A 0.216, I -0.135, W -0.051, F 0.174, G 0.201, V 0.072, S 0.074, Y 0.367, H 0.085, E 0.463
T32: H -0.359, L -0.907, C -0.494, M -0.299, P -0.589, N -0.217, D -0.163, E 0.056, F -1.18, Q -0.251, S -0.053, Y -0.388, K 0.083, I -0.924, G -0.337, V -0.631, A -0.226
Q37: L -0.343, I 0.086, Y -0.232, P -0.996, W -0.37, N -0.305, F -0.01, E 0.241, M -0.024, V -0.048, R -0.302, T -0.129, H -0.229, G 0.049, S -0.178
L28: N -0.404, T -0.342, I -0.368, C -0.325, Y -0.634, H -0.252, W -0.383, D -0.196, R -0.498, P -0.504, S -0.215, K -0.467, M -0.067, E -0.129, G -0.386, Q -0.365, V 0.073, A -0.352
P45: A 0.615, W -1.26, C -0.205, S -0.032, Y -0.426, N -0.274, M 0.019, G -0.168, R -0.716, D 0.017, K -0.285, E 0.244, F -0.144, T -0.031, Q 0.188, V 0.411, L -0.496, H -0.261
G40: W -1.23, D -0.572, I -0.839, T -0.67, C -0.573, F -0.865, Y -1.2, H -0.502, Q -0.216, N -0.253, L -1.01, V -0.689, R -0.411, E -0.556, A -0.65, K -0.651
